# In patent US20200102399A1, “Methods of Treating Peripheral T Cell Lymphoma Using Anti-CD30 Antibody Drug Conjugate Therapy” (Seattle Genetics, Inc., priority 2018, published 2020):
# Test system: newly diagnosed CD30-positive mature T- and NK-cell neoplasms, including sALCL
# Experiment: Phase 1 study SGN35-011: brentuximab vedotin with CHOP or CHP chemotherapy
# Format: in vivo, human
# Details: given concomitantly with CHP
# From the text: The clinical safety and activity of brentuximab vedotin administered sequentially and concurrently with multiagent chemotherapy were previously evaluated in a phase 1 study in patients with newly diagnosed CD30-positive mature T- and NK-cell neoplasms, including sALCL (Study SGN35-011). This phase 1 study was implemented to determine the safety and activity of sequential and combination frontline treatment approaches of brentuximab vedotin with CHOP or CHP chemotherapy. The maximum tolerated dose of brentuximab vedotin was 1.8 mg/kg given concomitantly with CHP. At an interim analysis in this study (data presented at the T-Cell Lymphoma Forum 2012), 20 patients in this study had been treated with brentuximab vedotin 1.2 or 1.8 mg/kg given concomitantly with CHP for 6 cycles, followed by continued brentuximab vedotin every 3 weeks for up to 10 additional cycles for responding patients.
substance,measurement,value
brentuximab vedotin,maximum tolerated dose,1.8 mg/kg
